From patent publication US12338277 (ROCKEFELLER UNIVERSITY, dated 2025)
Like-named read-outs stand apart in the source and are kept apart here.

Columns and labels:
gp120GD324-5AA = assay: ELISA, coated antigen, OD405 vs [IgG] (M)
gp120NNT301-303AAA = assay: ELISA, coated antigen, OD405 vs [IgG] (M)
YU-2 gp120 [1] = target: T1, YU-2 gp120 (HIV-1 (strain YU-2), UniProt P35961 32-498); assay: SPR, IgG over immobilised YU-2 gp120, 1:1 fit, apparent constant
T1 construct: domain: gp120; also called gp120WT; intact YU-2 gp120

YU-2 gp120 [2] = target: T1, YU-2 gp120; assay: ELISA, coated antigen, OD405 vs [IgG] (M)
YU-2 gp120 [3] = target: T1, YU-2 gp120; assay: ELISA, coated antigen, OD405 vs [IgG] (M); remark: listed apart in the source
YU-2 gp120 [4] = target: T1, YU-2 gp120; assay: ELISA, coated antigen, OD405 vs [IgG] (M); remark: listed apart in the source
YU-2 gp120 [5] = target: T1, YU-2 gp120; assay: ELISA, coated antigen, OD405 vs [IgG] (M); remark: listed apart in the source
YU-2 gp120 [6] = target: T1, YU-2 gp120; assay: ELISA, coated antigen, OD405 vs [IgG] (M); remark: listed apart in the source
YU-2 gp120 [7] = target: T1, YU-2 gp120; assay: ELISA, coated antigen, OD405 vs [IgG] (M); remark: listed apart in the source
[8] = target: HIV-1 CNE19 envelope on pseudovirus (HIV-1 (strain CNE19)); assay: cell-based or functional assay
[9] = target: HIV-1 62357_14_D3_4589 envelope on pseudovirus (HIV-1 (strain 62357_14_D3_4589)); assay: cell-based or functional assay
YU-2 gp120 [10] = target: T1, YU-2 gp120; assay: SPR, apparent KD on gp120, bar graph

Binder | binding result (gp120GD324-5AA) | binding result (gp120NNT301-303AAA) | Ka (YU-2 gp120 [1]) [M⁻¹] | Kd (YU-2 gp120 [1]) [nM] | koff (YU-2 gp120 [1]) [s⁻¹] | EC50 (read off the curve) (YU-2 gp120 [2]) [nM] | EC50 (read off the curve) (YU-2 gp120 [3]) [nM] | EC50 (read off the curve) (YU-2 gp120 [4]) [nM] | EC50 (read off the curve) (gp120NNT301-303AAA) [nM] | EC50 (read off the curve) (YU-2 gp120 [5]) [nM] | EC50 (read off the curve) (YU-2 gp120 [6]) [nM] | EC50 (read off the curve) (YU-2 gp120 [7]) [nM] | IC50, TZM-bl neutralization [8] [mg/L] | IC50, TZM-bl neutralization [9] [mg/L] | fold difference of KD, wildtype vs glycomutant (YU-2 gp120 [10]) [fold]
10-410 (antibody, V domains shown) VH: QVQLQESGPGLVKPPETLSLTCSVSGASVNDAYWSWIRQSPGKRPEWVGYVHHSGDTNYNPSLKRRVTFSLDTAKNEVSLKLVALTAADSAVYFCARALHGKRIYGIVALGELFTYFYMDVWGKGTTVTVSS VL: SFVSVAPGQTARITCGEESLGSRSVIWYQQRPGQAPSLIIYNNNDRPSGIPERFSGSPGSTFGTTATLTITSVEAGDEADYYCHIWDSRRPTNWVFGEGTTLTVL | binds | binds | 2.1e+07 | 47 | 0.0017 | – | – | – | – | – | – | – | – | – | –
10-1074 (antibody, V domains shown) VH: QVQLQESGPGLVKPSETLSVTCSVSGDSMNNYYWTWIRQSPGKGLEWIGYISDRESATYNPSLNSRVVISRDTSKNQLSLKLNSVTPADTAVYYCATARRGQRIYGVVSFGEFFYYYSMDVWGKGTTVTVSS VL: SYVRPLSVALGETARISCGRQALGSRAVQWYQHRPGQAPILLIYNNQDRPSGIPERFSGTPDINFGTRATLTISGVEAGDEADYYCHMWDSRSGFSWSFGGATRLTVL | binds | – | 1.1e+08 | 9.5 | 0.00019 | ~0.7 | ~0.3 | ~0.1 | ~0.1 | ~0.5 | ~0.3 | ~0.5 | – | – | –
10-1074GM (antibody, V domains shown, also called 10-1074 glycomutant) VH: QVQLQESGPGLVKPSETLSVTCSVSGDSMNNSYWTWIRQSPGKGLEWIGYISKSESANYNPSLNSRVVISRDTSKNQLSLKLNSVTPADTAVYYCATARHGQRIYGVVSFGEFFTYYSMDVWGKGTTVTVSS VL: SYVRPLSVALGETARISCGRQALGSRAVQWYQHRPGQAPILLIYNNQDRPSGIPERFSGTPDINFGTRATLTISGVEAGDEADYYCHMWDSRSGFSWSFGGATRLTVL | – | – | – | – | – | – | – | – | – | – | – | – | 0.19 | 40.8 | 1.8
10-847 (antibody, V domains shown) VH: QVQLQESGPGLVKPSETLSVTCSVSGDSMNNYYWTWIRQSPGKGLEWIGYISDRASATYNPSLNSRVVISRDTSKNQLSLKLNSVTPADTAVYYCATARRGQRIYGVVSFGEFFYYYSMDVWGKGTTVTVSS VL: SYVRPLSVALGETASISCGRQALGSRAVQWYQHRPGQAPILLIYNNQDRPSGIPERFSGTPDINFGTRATLTISGVEAGDEADYYCHMWDSRSGFSWSFGGATRLTVL | binds | – | 1.1e+08 | 8.9 | 0.00018 | ~0.4 | ~0.3 | ~0.1 | ~0.1 | ~0.3 | ~0.2 | ~0.3 | – | – | –
10-1341 (antibody, V domains shown) VH: QVQLQESGPGLVKPSETLSVTCSVSGDSMNNYYWTWIRQSPGKGLEWIGYISDRESATYNPSLNSRVVISRDTSTNQLSLKLNSVTPADTAVYYCATARRGQRIYGVVSFGEFFYYYSMDVWGRGTTVTVSS VL: SYVRPLSVALGETARISCGRQALGSRAVQWYQHRPGQAPILLIYNNQDRPSGIPERFSGTPDINFGTRATLTISGVEAGDEADYYCHMWDSRSGFSWSFGGATRLTVL | binds | – | 1.2e+08 | 8.2 | 0.00016 | ~0.6 | ~0.5 | ~0.09 | ~0.09 | ~0.2 | ~0.4 | ~0.5 | – | – | –
